Assay results from PMC5465072.

Legend:
Conditions in all cases: modification not given
[1] = target: T1, CMG2 38-218 (Homo sapiens), P58335; experiment: sandwich ELISA (competition with His6-PA 596-735)
T1 chain: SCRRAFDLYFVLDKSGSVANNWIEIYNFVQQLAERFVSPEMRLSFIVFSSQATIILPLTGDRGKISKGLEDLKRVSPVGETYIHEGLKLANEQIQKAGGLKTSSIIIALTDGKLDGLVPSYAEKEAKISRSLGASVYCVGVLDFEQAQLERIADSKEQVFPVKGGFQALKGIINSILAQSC

[2] = target: T1, CMG2 38-218 (Homo sapiens), P58335; experiment: microscale thermophoresis
[3] = target: T1, CMG2 38-218 (Homo sapiens), P58335; experiment: sandwich ELISA (competition with His6-PA 488-735)
[4] = target: T2, Protective antigen (PA) 488-735 (Bacillus anthracis), P13423; experiment: ELISA
[5] = target: T2, Protective antigen (PA) 488-735 …

| Binder | IC50 [1] [µM] | Kd [2] [µM] | IC50 [3] [µM] | IC50 [4] [µM] | Kd [5] [µM] |
| --- | --- | --- | --- | --- | --- |
| CLRFT | 71.3 | 30.2 | 77.1 | – | – |
| HPCNAMF [HPCNAMF (scrambled CMNHFPA)] | – | – | – | 153 | – |
| CMNHFPA | – | – | – | 49.8 | 38.2 |
